# Measured values as given in US20230331852A1 (OSE IMMUNOTHERAPEUTICS, published 2023).
# B1: chimeric anti-CLEC-1A antibody 14H9 (antibody, human IgG4 S228P, kappa, V domains shown)
# VH: QVQLKESGPGLVAPSQSLSITCTISGFSLTTYGIHWVRQPPGKGLEWLVVIWSDGSTIYNSALKSRLSISKDNSKSQVFLKMNSLQTDDTAIYYCARHGGYYNYFDYWGQGTTLTVSS
# VL: DIQMNQSPSSLSASLGDTITITCHASQNINVWLSWYQQKPGNIPKLLIYKASNLHTGVPSRFSGSGSGTTFTLTIDSLQPEDIATYYCQQGQSYWTFGGGTKLEIKR
# notes: also called 14H9chim; 14H9-VHwt-FcG4m / 14H9-VLwt-CLhk
# Experiments:
# [1] = target: T1, human CLEC-1A expressed on the cell membrane (human, UniProt Q8NC01 1-280); assay: flow cytometry on CHO-Clec-1 cells (from FIGURE 21)
# T1 construct: Endogenous on human U266 myeloma cells, on monocyte-derived TGFb-DC and macrophages; on CHO cells after transduction with a Clec-1 expressing lentivirus; also called U266 CLEC1; CLEC-1A on U266 cells
# T1 sequence: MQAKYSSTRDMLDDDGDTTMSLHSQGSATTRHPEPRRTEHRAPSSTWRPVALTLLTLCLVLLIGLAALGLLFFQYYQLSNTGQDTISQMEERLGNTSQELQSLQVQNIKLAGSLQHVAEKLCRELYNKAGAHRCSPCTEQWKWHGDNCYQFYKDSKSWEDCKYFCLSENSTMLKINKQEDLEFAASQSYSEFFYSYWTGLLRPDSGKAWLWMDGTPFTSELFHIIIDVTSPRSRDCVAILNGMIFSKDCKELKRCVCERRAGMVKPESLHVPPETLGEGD
# Experimental: To measure binding of anti-clec on CHO-Clec-1 cells, human Fc Receptor Binding Inhibitor diluted at 1/200 (BD pharmingen; USA; reference 564220) was first added for 30 min at room-temperature to block human Fc receptors on CHO-Clec-1 cells to reduce background. Then, antibodies were incubated for 30 min at 4° C., and washed before stained 15 min at 4° C. with PE-labelled anti-human IgG Fc (Biolegend; USA; reference 409303). Samples were analyzed on citoflex (Beckman coulter)
# [2] = target: T1, human CLEC-1A expressed on the cell …; assay: flow cytometry on U266 cells, PE anti-human IgG; median fluorescence
# Experimental: Method: To measure binding of anti-CLEC1 on human U266 cell lines (pre-blocked with Fcblock to blocking FcR), antibodies at different concentrations were incubated for 30 min at 4° C., and washed before stained 30 min at 4° C. with PE-labelled anti-human IgG (Biolegend; reference 409304). Samples were analyzed on Cytoflex cytofluorometer (Beckman Coulter). The MFI of anti-CLEC1 was compared between all anti-CLEC1 antibodies and percentage of stained cells was analysed in all conditions.
# [3] = target: T2, Fc-CLEC1 labelled with Alexa Fluor 488 (human, Alexa Fluor 488 label (sites not given)); assay: FACS competition: blocks Fc-CLEC1-A488 (10 nM) binding to CLEC-1 ligand on UV-treated PBMC
# T2 construct: also called Fc-CLEC1-A488; Alexa488-Fc-Clec-1
# T2 chain: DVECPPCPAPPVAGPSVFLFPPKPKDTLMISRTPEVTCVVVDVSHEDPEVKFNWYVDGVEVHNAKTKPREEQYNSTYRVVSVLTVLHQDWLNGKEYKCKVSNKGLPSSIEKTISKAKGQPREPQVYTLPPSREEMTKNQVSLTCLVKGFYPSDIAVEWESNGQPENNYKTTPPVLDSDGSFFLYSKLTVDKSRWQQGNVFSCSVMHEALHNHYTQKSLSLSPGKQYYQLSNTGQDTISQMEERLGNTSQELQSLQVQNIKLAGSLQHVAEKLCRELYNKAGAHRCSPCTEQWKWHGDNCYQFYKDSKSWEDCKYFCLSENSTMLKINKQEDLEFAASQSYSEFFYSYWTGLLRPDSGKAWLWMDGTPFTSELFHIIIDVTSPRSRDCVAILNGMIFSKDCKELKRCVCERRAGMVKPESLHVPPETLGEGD
# Experimental: Competition were also measured on UV pre-treated pro-apoptotic human PBMCs, which can also express the ligand after a treatment under UV radiation for 18 hours. After UV treatment, cells were first washed in cold-PSE and then blocked during 30 min at room temperature with human Fc-block 50-fold diluted in PSE, and then replaced on ice. Purified anti-Clec antibodies at different concentrations were pre-incubated with Alexa488-Fc-Clec-1 in PSE at different concentrations for 15 min at room temperature. Pre-incubated mixes were then incubated on Fc-blocked/SAB (#34005-100, Invitrogen, Illkirch, France) pro-apoptotic PBMCs for 30 min on ice. Binding on cells were then fixed by PFA 2% in cold PBS for 10 min on ice and analyzed on CytoFlex cytofluorometer (Beckman Coulter France, Villepinte).
# (§1) Methods. To measure competition on permeabilised Raji (CytoFix/cytoperm kit, BD Biosciences) which expressed CLEC1 ligand, Fc-CLEC1-labelled A488 which bound specifically to permeabilised Raji was used. To measure competition, Fc-CLEC1 labelled A488 at 10 nM or 20 nM was mixed with mouse anti-hCLEC1 at different concentrations for 15 min at RT then added on these cells for 30 min at 4° C. […] To measure competition on PMBC, we used human PBMC pre-treated by UV for 18 h to obtain apoptotic PBMC, which expressed CLEC1 ligand. Fc-CLEC1-labelled A488 bound specifically apoptotic UV-treated PBMC. To measure competition, Fc-CLEC1 labelled A488 at 10 nM was mixed with mouse anti-hCLEC1 at different concentrations for 15 min at RT then added on these cells for 30 min at 4° C.
# [4] = target: T2, Fc-CLEC1 labelled with Alexa Fluor 488; assay: FACS competition: blocks Fc-CLEC1-A488 (10 nM) binding to CLEC-1 ligand on permeabilised Raji cells; IC50 median
# Experimental: To measure competition, purified anti-Clec antibodies at different concentrations were pre-incubated in Perm Wash Buffer with Alexa488-Fc-Clec-1 for 15 min at room temperature. Pre-incubated mixes were then incubated on permeabilized and Fc-blocked Raji cells for 30 min on ice. Binding on cells were then fixed by PFA 2% in cold PBS for 10 min on ice and analyzed on CytoFlex cytofluorometer (Beckman Coulter France, Villepinte).
# as §1
binder,measurement,setting,value
B1,EC50,[1],0.895 µg/mL
same,EC50 (read off the curve),[2],~0.06 µg/mL
same,IC50,[3],0.873 µg/mL
same,IC50,[4],3.9 nM
